In publication PMC4283134, “Nup98 FG domains from diverse species spontaneously phase-separate into particles with nuclear pore-like permselectivity” (eLife, 2015):

What was measured:
[1] = target: Trypanosoma brucei Nup158 FG domain (Trypanosoma brucei); experiment: dynamic light scattering; FG domain diluted from stocks in 2 M GuHCl into TBS (50 mM Tris/HCl pH 7.5, 150 mM NaCl) to 10-0.06 µM; critical concentration of phase separation from the lowest concentration with particles, refined by the monomers that co-exist with particles
[2] = target: Dictyostelium discoideum Nup220 FG domain (Dictyostelium discoideum); experiment: as above
[3] = target: Branchiostoma floridae Nup98 FG domain (Branchiostoma floridae); experiment: as above
[4] = target: Saccharomyces cerevisiae Nup100 FG domain (residues 2-580, purified) (S. cerevisiae) (UniProt Q02629); experiment: partitioning into FG particles (confocal laser-scanning microscopy); FG particles formed from 5 or 10 µM purified FG domain (with labelled tracer) by dilution from GuHCl into TBS; 1 µM fluorescent NTR or NTR⋅cargo complex or 3 µM passive probe added; images about 2-3 min later
[5] = target: Saccharomyces cerevisiae Nup116 FG domain (residues 1-736, FG bodies formed in E. coli) (S. cerevisiae) (UniProt Q02630); experiment: partitioning into FG bodies or inclusion bodies (confocal laser-scanning microscopy); crude FG bodies or actin inclusion bodies from E. coli, washed twice in TBS; 1 µM Impβ•IBB-GFP and MBP-mCherry added
[6] = target: Saccharomyces cerevisiae Nup100 FG domain (residues 1-580, FG bodies formed in E. coli) (S. cerevisiae) (UniProt Q02629); experiment: as above
[7] = target: Tetrahymena thermophila macronuclear MacNup98A FG domain (Tetrahymena thermophila); experiment: dynamic light scattering; FG domain diluted from stocks in 2 M GuHCl into TBS (50 mM Tris/HCl pH 7.5, 150 mM NaCl) to 10-0.06 µM; critical concentration of phase separation from the lowest concentration with particles, refined by the monomers that co-exist with particles
[8] = target: Branchiostoma floridae Nup98 FG domain, O-GlcNAc modified (Branchiostoma floridae); experiment: as above
human Importin β = target: T1, human Importin β (human, UniProt Q14974 1-876); experiment: pull-down; His-tagged FG domains (30 µg each) immobilised on 30 µl PEG-passivated Ni(II) chelate beads; 1 µM untagged human Importin β (400 µl), 2 hr at 4°C; 25 mM Tris/HCl pH 7.5, 100 mM NaCl, 1 mM MgCl2, 0.5% PEG4000, 5 mM DTT; SDS-PAGE/Coomassie; conditions: both partners purified
T1 construct: Importin β, human; also called HsImpβ; pICH005; source: E. coli (BLR or NEB Express), purified (native Ni(II) chelate chromatography, tag removed); not shown: His14, N-terminal, cleaved; scSUMO, N-terminal, cleaved

[9] = target: the molecule itself; experiment: dynamic light scattering; FG domain diluted from stocks in 2 M GuHCl into TBS (50 mM Tris/HCl pH 7.5, 150 mM NaCl) to 10-0.06 µM; critical concentration of phase separation from the lowest concentration with particles, refined by the monomers that co-exist with particles

T1 sequence (Q14974 whole entry, the tested form may be a part): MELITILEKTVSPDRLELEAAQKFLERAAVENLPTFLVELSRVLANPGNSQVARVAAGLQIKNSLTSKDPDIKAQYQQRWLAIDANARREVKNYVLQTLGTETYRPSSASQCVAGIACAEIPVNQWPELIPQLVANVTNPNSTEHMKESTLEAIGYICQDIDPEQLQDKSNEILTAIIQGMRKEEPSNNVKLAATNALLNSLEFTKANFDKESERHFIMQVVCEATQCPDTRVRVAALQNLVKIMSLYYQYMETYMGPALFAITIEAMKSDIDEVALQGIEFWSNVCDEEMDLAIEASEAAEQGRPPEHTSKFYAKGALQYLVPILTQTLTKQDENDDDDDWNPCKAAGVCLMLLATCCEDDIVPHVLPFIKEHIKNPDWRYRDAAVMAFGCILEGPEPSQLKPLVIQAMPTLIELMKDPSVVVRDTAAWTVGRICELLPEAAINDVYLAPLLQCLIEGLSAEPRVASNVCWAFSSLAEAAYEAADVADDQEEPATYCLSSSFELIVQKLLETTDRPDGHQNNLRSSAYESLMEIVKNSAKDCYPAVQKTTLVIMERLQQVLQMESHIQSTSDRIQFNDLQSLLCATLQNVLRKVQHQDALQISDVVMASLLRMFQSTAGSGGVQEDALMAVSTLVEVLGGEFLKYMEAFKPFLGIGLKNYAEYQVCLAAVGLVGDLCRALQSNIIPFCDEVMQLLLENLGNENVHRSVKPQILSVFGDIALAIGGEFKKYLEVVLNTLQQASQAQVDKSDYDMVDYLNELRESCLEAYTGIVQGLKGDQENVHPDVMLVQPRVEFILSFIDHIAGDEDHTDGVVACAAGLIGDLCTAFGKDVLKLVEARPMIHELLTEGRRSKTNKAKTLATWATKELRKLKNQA

Molecule | binding result (human Importin β) | estimated critical concentration for phase separation (FG domain) [9] | also measured
Trypanosoma brucei Nup158 FG domain (domain or fragment) |  |  | estimated critical concentration for phase separation (FG domain) [1]: 300 nM
Dictyostelium discoideum Nup220 FG domain (domain or fragment) |  |  | estimated critical concentration for phase separation (FG domain) [2]: 125 nM
Branchiostoma floridae Nup98 FG domain (domain or fragment) |  |  | estimated critical concentration for phase separation (FG domain) [3]: 20 nM
Importin β⋅IBB-GFP complex (from UniProt Q06142 1-861; Q02821 2-63) |  |  | particle:buffer partition coefficient [4]: 220; particle:buffer partition coefficient [5]: 200; particle:buffer partition coefficient [6]: 200
Tetrahymena thermophila macronuclear MacNup98A FG domain (domain or fragment) |  |  | estimated critical concentration for phase separation (FG domain) [7]: 25 nM
MBP-mCherry fusion |  |  | particle:buffer partition coefficient [4]: < 0.1
Branchiostoma floridae Nup98 FG domain, O-GlcNAc modified (domain or fragment) |  |  | estimated critical concentration for phase separation (FG domain) [8]: 150 nM
Homo sapiens Nup98 FG domain (domain or fragment, human, Nup98 FG domain, human, residues 1-499; engineered C-terminal cysteine; In particle assays a few percent of the molecules carried a fluorescent tracer label; also called HsNup98 FG; HsNup98; source: E. coli (BLR or NEB Express), purified (Ni(II) chelate, denaturing conditions); not shown: His18, N-terminal, kept) MFNKSFGTPFGGGTGGFGTTSTFGQNTGFGTTSGGAFGTSAFGSSNNTGGLFGNSQTKPGGLFGTSSFSQPATSTSTGFGFGTSTGTANTLFGTASTGTSLFSSQNNAFAQNKPTGFGNFGTSTSSGGLFGTTNTTSNPFGSTSGSLFGPSSFTAAPTGTTIKFNPPTGTDTMVKAGVSTNISTKHQCITAMKEYESKSLEELRLEDYQANRKGPQNQVGAGTTTGLFGSSPATSSATGLFSSSTTNSGFAYGQNKTAFGTSTTGFGTNPGGLFGQQNQQTTSLFSKPFGQATTTQNTGFSFGNTSTIGQPSTNTMGLFGVTQASQPGGLFGTATNTSTGTAFGTGTGLFGQTNTGFGAVGSTLFGNNKLTTFGSSTTSAPSFGTTSGGLFGNKPTLTLGTNTNTSNFGFGTNTSGNSIFGSKPAPGTLGTGLGAGFGTALGAGQASLFGNNQPKIGGPLGTGAFGAPGFNTTTATLGFGAPQAPVALTDPNASAAQQAC | binds | ~25 nM | 
Drosophila melanogaster Nup98 FG domain (domain or fragment, Nup98 FG domain, Drosophila melanogaster, residues 1-580; engineered C-terminal cysteine; In particle assays a few percent of the molecules carried a fluorescent tracer label; also called DmNup98 FG; DmNup98; source: E. coli (BLR or NEB Express), purified (Ni(II) chelate, denaturing conditions); not shown: His18, N-terminal, kept) MFGGAKPSFGATPAATSFGGFSGTTTTTPFGQSAFGKPAAPAFGNTSTFAAQPAQQSLFGAAATPAQPAGGLFGANTSTGFGSTATAQPTAFGAFSQPQQTSNIFGSTQTAASTSLFGQSTLPAFGAAKPTMTAFGQTAAAQPTGSLFGQPAAATSTTGFGGFGTSAPTTTNVFGSGTASAFAQPQATAVGASGVNTGTAVAKYQPTIGTDTLMKSGQANSVNTKQHCITAMKEFEGKSLEELRLEDYMCGRKGPQAGNAPGAFGFGAQVTQPAQPASGGLFGSTAQPSTGLFGQTVTENKSMFGTTAFGQQPATNNAFGAATQQNNFLQKPFGATTTTPFAAPAADASNPFGAKPAFGQGGSLFGQAPATSAAPAFGQTNTGFGGFGTTAGATQQSTLFGATPAADPNKSAFGLGTAASAATTGFGFGAPATSTAGGGLFGNKPATSFAAPTFGATSTASTPFSNFGLNTSTAATGGGLFNSGLNKPATSGFGGFGATSAAPLNFNAGNTGGSLFGNTAKPGGGLFGGGTTTLGGTGAAPTGGLFGGGTTSFGGVGGSLGGGGFGMGTNNSLTGGIMGAC | binds | ~200 nM | 
Caenorhabditis elegans NPP-10/Nup98 FG domain (domain or fragment, NPP-10/Nup98 FG domain, Caenorhabditis elegans, residues 1-493; engineered C-terminal cysteine; In particle assays a few percent of the molecules carried a fluorescent tracer label; also called CeNup98 FG; CeNup98; source: E. coli (BLR or NEB Express), purified (Ni(II) chelate, denaturing conditions); not shown: His18, N-terminal, kept) MFGQNKSFGSSSFGGGSSGSGLFGQNNQNNQNKGLFGQPANNSGTTGLFGAAQNKPAGSIFGAASNTSSIFGSPQQPQNNQSSLFGGGQNNANRSIFGSTSSAAPASSSLFGNNANNTGTSSIFGSNNNAPSGGGLFGASTVSGTTVKFEPPISSDTMMRNGTTQTISTKHMCISAMSKYDGKSIEELRVEDYIANRKAPGTGTTSTGGGLFGASNTTNQAGSSGLFGSSNAQQKTSLFGGASTSSPFGGNTSTANTGSSLFGNNNANTSAASGSLFGAKPAGSSLFGSTATTGASTFGQTTGSSLFGNQQPQTNTGGSLFGNTQNQNQSGSLFGNTGTTGTGLFGQAQQQPQQQSSGFSFGGAPAATNAFGQPAAANTGGSLFGNTSTANTGSSLFGAKPATSTGFTFGATQPTTTNAFGSTNTGGGLFGNNAAKPGGLFGNTTNTGTGGGLFGSQPQASSGGLFGSNTQATQPLNTGFGNLAQPQIVMQQQC | binds | ~700 nM | 
Saccharomyces cerevisiae Nup100 FG domain (residues 2-580, purified) (domain or fragment, S. cerevisiae, Nup100 FG domain, S. cerevisiae, residues 2-580; engineered C-terminal cysteine; In particle assays a few percent of the molecules carried a label (Atto390, Atto488 or Alexa488); also called ScNup100 FG; ScNup100; source: E. coli (BLR or NEB Express), purified (Ni(II) chelate, denaturing conditions); not shown: His18, N-terminal, kept) FGNNRPMFGGSNLSFGSNTSSFGGQQSQQPNSLFGNSNNNNNSTSNNAQSGFGGFTSAAGSNSNSLFGNNNTQNNGAFGQSMGATQNSPFGSLNSSNASNGNTFGGSSSMGSFGGNTNNAFNNNSNSTNSPFGFNKPNTGGTLFGSQNNNSAGTSSLFGGQSTSTTGTFGNTGSSFGTGLNGNGSNIFGAGNNSQSNTTGSLFGNQQSSAFGTNNQQGSLFGQQSQNTNNAFGNQNQLGGSSFGSKPVGSGSLFGQSNNTLGNTTNNRNGLFGQMNSSNQGSSNSGLFGQNSMNSSTQGVFGQNNNQMQINGNNNNSLFGKANTFSNSASGGLFGQNNQQQGSGLFGQNSQTSGSSGLFGQNNQKQPNTFTQSNTGIGLFGQNNNQQQQSTGLFGAKPAGTTGSLFGGNSSTQPNSLFGTTNVPTSNTQSQQGNSLFGATKLTNMPFGGNPTANQSGSGNSLFGTKPASTTGSLFGNNTASTTVPSTNGLFGNNANNSTSTTNTGLFGAKPDSQSKPALGGGLFGNSNSNSSTIGQNKPVFGGTTQNTGLFGATGTNSSAVGSTGKLFGQNNNTLNVGTC | binds | ~175 nM | 
Saccharomyces cerevisiae Nup116 FG domain without the GLEBS domain (domain or fragment, S. cerevisiae, Nup116 FG domain, S. cerevisiae, residues 2-109 joined to 167-715 (GLEBS domain deleted); engineered C-terminal cysteine; In particle assays a few percent of the molecules carried a fluorescent tracer label; also called ScNup116_(ΔGLEBS) FG; ScNup116; source: E. coli (BLR or NEB Express), purified (Ni(II) chelate, denaturing conditions); not shown: His18, N-terminal, kept) FGVSRGAFPSATTQPFGSTGSTFGGQQQQQQPVANTSAFGLSQQTNTTQAPAFGNFGNQTSNSPFGMSGSTTANGTPFGQSQLTNNNASGSIFGGMGNNTALSAGSASFGTSQNGTGTTFNNPQGTTNTGFGIMGNNNSTTSATTGGLFGQKPATGMFGTGTGSGGGFGSGATNSTGLFGSSTNLSGNSAFGANKPATSGGLFGNTTNNPTNGTNNTGLFGQQNSNTNGGLFGQQQNSFGANNVSNGGAFGQVNRGAFPQQQTQQGSGGIFGQSNANANGGAFGQQQGTGALFGAKPASGGLFGQSAGSKAFGMNTNPTGTTGGLFGQTNQQQSGGGLFGQQQNSNAGGLFGQNNQSQNQSGLFGQQNSSNAFGQPQQQGGLFGSKPAGGLFGQQQGASTFASGNAQNNSIFGQNNQQQQSTGGLFGQQNNQSQSQPGGLFGQTNQNNNQPFGQNGLQQPQQNNSLFGAKPTGFGNTSLFSNSTTNQSNGISGNNLQQQSGGLFQNKQQPASGGLFGSKPSNTVGGGLFGNNQVANQNNPASTSGGLFGSKPATGSLFGGTNSTAPNASSGGIFGSNNASNTAATTNSTGLFGNKPVGAGASTSAGGLFGNNNNSSLNNSNGSTGLFGSNNTSQSTNAGGLFQNNTSTNTSGGGLFSC |  | ~700 nM | 
Arabidopsis thaliana Nup98B FG domain (domain or fragment, Nup98B FG domain, Arabidopsis thaliana, residues 1-668; engineered C-terminal cysteine; In particle assays a few percent of the molecules carried a fluorescent tracer label; also called AtNup98B FG; AtNup98B; source: E. coli (BLR or NEB Express), purified (Ni(II) chelate, denaturing conditions); not shown: His14 (with TEV site), N-terminal, kept) MFGSSNNNPFGQSSISSPFGTQTHSLFGQTNNNASNNPFATKPFGTSTPFGAQTGSSMFGGTSTGVFGAPQTSSPFGASPQAFGSSTQAFGASSTPSFGSSNSPFGGTSTFGQKSFGLSTPQSSPFGSTTQQSQPAFGNSTFGSSTPFGASTTPAFGASSTPAFGVSNTSGFGATNTPGFGATNTTGFGGSSTPGFGASSTPAFGSTNTPAFGASSTPLFGSSSSPAFGASPAPAFGSSGNAFGNNTFSSGGAFGSSSTPTFGASNTSAFGASSSPSFNFGSSPAFGQSTSAFGSSSFGSTQSSLGSTPSPFGAQGAQASTSTFGGQSTIGGQQGGSRVIPYAPTTDTASGTESKSERLQSISAMPAHKGKNMEELRWEDYQRGDKGGQRSTGQSPEGAGFGVTNSQPSIFSTSPAFSQTPVNPTNPFSQTTPTSNTNFSPSFSQPTTPSFGQPTTPSFRSTVSNTTSVFGSSSSLTTNTSQPLGSSIFGSTPAHGSTPGFSIGGFNNSQSSPLFGSNPSFAQNTTPAFSQTSPLFGQNTTPALGQSSSVFGQNTNPALVQSNTFSTPSTGFGNTFSSSSSLTTSISPFGQITPAVTPFQSAQPTQPLGAFGFNNFGQTQIANTTDIAGAMGTFSQGNFKQQPALGNSAVMQPTPVTNPFGTLPALPQC | binds | ~25 nM | 
